Key:
[1] = molecular target: Escherichia coli SduA (Shedu system, E. coli KTE10) (Escherichia coli KTE10); test: SEC-MALS
EcSduA (Shedu SduA) [2] = molecular target: T1, EcSduA (Shedu SduA) (Escherichia coli, UniProt PDB:8PS5_1 1-411); test: fluorescence polarization
T1 sequence: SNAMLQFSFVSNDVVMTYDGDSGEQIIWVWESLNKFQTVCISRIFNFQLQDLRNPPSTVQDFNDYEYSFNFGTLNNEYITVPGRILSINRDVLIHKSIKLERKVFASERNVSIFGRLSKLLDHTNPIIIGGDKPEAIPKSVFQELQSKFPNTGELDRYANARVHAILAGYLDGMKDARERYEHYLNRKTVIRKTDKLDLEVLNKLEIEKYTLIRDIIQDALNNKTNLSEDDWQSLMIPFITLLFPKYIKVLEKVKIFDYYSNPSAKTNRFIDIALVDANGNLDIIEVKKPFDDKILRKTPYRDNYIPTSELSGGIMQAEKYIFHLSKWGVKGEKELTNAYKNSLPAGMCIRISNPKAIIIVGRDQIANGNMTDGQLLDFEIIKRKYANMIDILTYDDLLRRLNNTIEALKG

EcSduA (Shedu SduA) [3] = molecular target: T1, EcSduA (Shedu SduA); test: cryo-EM structure

Escherichia coli SduA (Shedu system, E. coli KTE10) (enzyme)
stoichiometry N [1]: 4

B1: 40 bp dsDNA oLL321/oLL322 (dsDNA)
DNA 1: GATACCAGCTCTATGTTGACCTCTCAGATCGGCACTACTT
DNA 2: AAGTAGTGCCGATCTGAGAGGTCAACATAGAGCTGGTATC
Kd (EcSduA (Shedu SduA) [2]): 11.9 ± 0.4 nM

B2: 40 bp palindromic dsDNA oLL314 (dsDNA)
DNA 1: CTAGTGCATCTGAATCGTCATGACGATTCAGATGCACTAG
DNA 2: B2 DNA 1
binding result (EcSduA (Shedu SduA) [3]): binds
